In the supplement of paper PMC9170038:

System: MS2 coat protein
Test: apparent KD of MS2 coat protein; designed switch direction (-1 OFF switch, 1 ON switch): -1; higher = weaker reporter binding
Procedure, shortened: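 Designed RNA switches sharing common flanks were transcribed on Illumina chips by stalled E. coli RNA polymerase. They were titrated with SNAP-549-labelled MS2 coat protein, from 0.7 or 1.5 nM doubling to 3 µM, in Tris-HCl pH 7.5 buffer with KCl, MgCl2, BSA, DTT, tRNA and Tween-20. Titrations ran without input, with 200 uM small-molecule ligand, or with an oligonucleotide input. The apparent KD of each design is the median over its clusters, after curve-fitting of normalised cluster fluorescence.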

[1] = input ligand: microRNA oligo, concentration not stated

Sequence	apparent KD of MS2 coat protein (input ligand: FMN 200 uM) [nM]	apparent KD of MS2 coat protein (input ligand: none) [nM]	apparent KD of MS2 coat protein [1] [nM]	apparent KD of MS2 coat protein (Eterna round: R95, input ligand: FMN 200 uM) [nM]	apparent KD of MS2 coat protein (Eterna round: R95, input ligand: microRNA oligo, concentration not stated) [nM]	apparent KD of MS2 coat protein (Eterna round: R95, input ligand: none) [nM]
ACAACCAGAGGAUAUGCGCAUAGAUCAGACUUUGUUUCUGAACAUGAGGAUCACCCAUGUAGAAGGCUGUAACC [Ex2 #79] (Eterna round: R97, puzzle: Exclusion 2)	27.7	28.7	–	–	–	–
ACAAGACAUGAGGAUCACCCAUGUGGUCGGAUGUCAAAGACCGAGGAUAUCAGCGACUGCGCCGCUGAGAAGGCGGAUGGUGCU [Telaed] (Eterna round: R96, puzzle: Exclusion NG 3)	1260	652	476	–	–	–
ACAAGAGCGGAAGGAUAUUUUACAUGAGGAUCACCCAUGUAAUAAAUGAGGAUCACGGAUGUAGUAAAGAAGGUCCGGAUAAGA [Ostracism 2 - Jieux - Exclusion NG 2] (Eterna round: R96, puzzle: Exclusion NG 2)	–	–	18.4	–	–	–
ACAAGCUUUUAGAUUCUUAACAUGAGGAUCACCCAUGUGCUCGUCUUAUUGGGCCCGGGCCCGCCGGGCCCGGGCCC (Eterna round: R97, puzzle: Sensor, turn-off variant 1)	39.2	42.6	–	–	–	–
ACAAGCUUUUGGAUUUUCAACAUGAGGAUCACCCAUGUUCGUCUUAUGCGAGUGCGAGUGCGGUGUACUCGUAUUAG [JL TOV1 3.86 sellena mod] (Eterna round: R97, puzzle: Sensor, turn-off variant 1)	25.3	24.4	–	–	–	–
ACAAGCUUUUUGCAACAAGCAUUAAACUCUCAGAUCGUAACAUGAGGAUCACCCAUGUAAGUUUUAUGACGUCUUAU [JR_SV3TOV2_Sub095] (puzzle: Sensor v3, turn-off variant 2)	–	–	–	20.8	18.1	22.9
ACACAAAGCUAGGAUAUCCAGGCAUCUUCGGCCGGAGAAGGAGCCACAUGAGGAUCACCCAUGUGGUGAUCCUG [eternacac ex6r4 sub5] (Eterna round: R97, puzzle: Exclusion 6)	70.9	50.6	–	–	–	–
ACACAGCAAGGAUAUACAUGAGGAUCACCCAUGUGGCGGCCGUUACGGUAGGACUAGUGUAGAAGGUGCAUUGG [EX3 #33] (Eterna round: R97, puzzle: Exclusion 3)	167	210	–	–	–	–
ACACUGCGAGGAUAUACAUGAGGAUCACCCAUGUAUCGGUAGACAAGGUUAAUUUAAGGUAGAAGGCGCGUAUU [JR_Ex3_Sub008] (Eterna round: R97, puzzle: Exclusion 3)	36.9	29.1	–	–	–	–
ACAGAGUCAGGAUAUCGCCGUGGCAGUCUCAACCAGCGGAACGAGAAGGGACAUGAGGAUCACCCAUGUCUGUU [Eternabot (Original) Solution 36] (Eterna round: R97, puzzle: Exclusion 4)	20.7	18.6	–	–	–	–
ACAUCACAGCUAGGAUAUAGAUGACAUGAGGAUCACCCAUGUUAUCCCAUGUUGACGGAAACCGACUAGAAGGAGCUACAGAUG [Ex NG2 #7] (Eterna round: R96, puzzle: Exclusion NG 2)	129	47.9	41.8	–	–	–
ACAUGAGGAUCACCCAUGUCAGGUGGGUCCUCUCCGGCUGUUGAGGAUAUAGUCCGGUAUCCGCGCUAGAAGGUGAGGGCCGGC [Aenatbe mod 17] (Eterna round: R96, puzzle: Exclusion NG 3)	29.8	33.7	31.1	–	–	–
ACAUGAGGAUCACCCAUGUCCGUCUGAUCUGUCUCGGCUGUCGAGGAUAUAGCCCGGUAUCCGCGCUAGAAGGUGGGAGUCGGA [Aenatbe mod 100] (Eterna round: R96, puzzle: Exclusion NG 3)	34.9	42	33.4	–	–	–
ACAUGAGGAUCACCCAUGUCUGGCUGGUCCGUCUCGGCUGUCGAGGAUAUGGCUCGGUGUCCGCGCUAGAAGGCGGGAGCUGGU [Aenatbe mod 79] (Eterna round: R96, puzzle: Exclusion NG 3)	195	77.5	45	–	–	–
ACAUGAGGAUCACCCAUGUGAAAAGAAUGGCUGACACAGAGUUAGGAUAUGCGUGCAUAUCUAACGCAGAAGGGACAUGACUGG [Deportation 82 - Jieux - Exclusion NG 3] (Eterna round: R96, puzzle: Exclusion NG 3)	33.7	30.2	33.9	–	–	–
ACAUGAGGAUCACCCAUGUGACCACAAUGGCUGAUAUAGAAACAGGAUAUUCGUGAAUAUCUAACGAAGAAGGGUUAUGACUGG [Deportation 65 - Jieux - Exclusion NG 3] (Eterna round: R96, puzzle: Exclusion NG 3)	–	–	61	–	–	–
ACAUGAGGAUCACCCAUGUGACCACAAUGGCUGAUGUAACGACAGGAUAUGCGUGAAUAUCUAACGCAGAAGGGUCAUGACUGG [Deportation 61 - Jieux - Exclusion NG 3] (Eterna round: R96, puzzle: Exclusion NG 3)	62.8	48.2	30.5	–	–	–
